Holding throughout (assay): SPR; […]; HBS-EP (10 mM HEPES pH 7.4, 150 mM NaCl, 3 mM EDTA, 0.005% Surfactant P20); […]
On the technique in general: SPR reads the build-up and loss of mass on a sensor chip optically.

The target of assay [1] is soluble head domain of CDV-H (canine distemper virus hemagglutinin), Kyoto Biken vaccine strain, made in HEK293T cells (canine distemper virus (Kyoto Biken vaccine strain)).
Assay [2] has as its target MeV-H (measles virus hemagglutinin), vaccine strain (measles virus).
For assay [3], the target named is ectodomain (head domain) of CDV-H, 5VD wild-type strain (canine distemper virus (5VD wild-type strain)).

Sequence of ectodomain of human Nectin-4 (residues 1-333) (Q96NY8 32-333): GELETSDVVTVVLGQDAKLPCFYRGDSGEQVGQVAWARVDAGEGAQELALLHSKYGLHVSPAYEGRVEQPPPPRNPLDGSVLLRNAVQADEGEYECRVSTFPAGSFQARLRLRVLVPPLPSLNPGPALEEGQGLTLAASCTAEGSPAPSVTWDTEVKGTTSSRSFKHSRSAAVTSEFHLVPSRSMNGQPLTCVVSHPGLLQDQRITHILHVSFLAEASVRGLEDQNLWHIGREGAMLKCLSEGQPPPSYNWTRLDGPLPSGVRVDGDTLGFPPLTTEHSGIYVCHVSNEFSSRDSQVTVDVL

A word on the Kd: it is the constant that tells how readily two partners part at equilibrium. High values mean lower affinity, low ones higher affinity. As to “ectodomain of dog Nectin-4 (residues 1-332) (receptor)”, the values for the Ka in assay [1], in assay [2] and in assay [3] were 1.06e+06 M⁻¹, 950000 M⁻¹ and 396000 M⁻¹, respectively. Moreover, the results for the equilibrium dissociation constant (Kd) in assay [1], in assay [2] and in assay [3] were 942 nM, 1050 nM and 2530 nM, respectively.

For “ectodomain of human Nectin-4 (residues 1-333) (from UniProt Q96NY8 32-333) (receptor)”, the Ka turned out to be 1.05e+06 M⁻¹ in assay [1], 1.5e+06 M⁻¹ in assay [2] and 397000 M⁻¹ in assay [3]. Moreover, the figures for the Kd in assay [1], in assay [2] and in assay [3] were 2520 nM, 666 nM and 948 nM, respectively.

The record behind these values is publication PMC11268888.
